What was measured:
[1] = molecular target: T1, monomeric human sBCMA (GenScript) (human, UniProt Q02223 1-54); experiment: SPR (ProteOn XPR36), antibody captured by anti-Fc, sBCMA 100-6.25 nM as analyte
T1 construct: extracellular domain; also called monomeric BCMA; monomeric (soluble) BCMA
T1 sequence (looked up): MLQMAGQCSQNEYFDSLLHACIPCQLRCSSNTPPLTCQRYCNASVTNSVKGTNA
Procedure: The binding of 15B2GL monoclonal antibody and optimized clones I09, L15, P10, N22, and M02 (described in Example 1) was assessed using monomeric human sBCMA (GenScript, Piscataway, N.J.) using a ProteOn™ XPR36 instrument (Bio-Rad, Hercules, Calif.). The binding of J6M0 also was assessed for comparison. Standard amine coupling was used to immobilize 25 μg/ml anti-Fc polyclonal antibody (Jackson ImmunoResearch, West Grove, Pa.) prepared in 10 mM sodium acetate buffer (pH 4.5) to the surface of a ProteOn™ GLC biosensor chip (Bio-Rad, Hercules, Calif.) pre-activated with 20 mM EDAC (1-ethyl-3-(3-dimethylaminopropyl)carbodiimide hydrochloride) and 5 mM Sulfo-NHS (N-hydroxysulfosuccinimide) at a density of ˜200-600 resonance units (RU). 15B2GL, I09, L15, P10, N22, M02, and J6M0 were subsequently injected at a concentration of 1 μg/ml for capture by the immobilized anti-Fc polyclonal antibody. The sensorgram was recorded by flowing two-fold serial dilutions of sBCMA prepared in PBS (pH 7.4) with 0.005% (v/v) Tween®-20, ranging from 100-6.25 nM, over the captured surface for 150 seconds at 75 μL/minute with dissociation time of 600 seconds. ProteOn™ data analysis software was used to analyze the data.

[2] = molecular target: T2, membrane-bound human BCMA (human, UniProt Q02223 1-184); experiment: flow cytometry on NCI-H929 cells (endogenous BCMA), printed as apparent affinity
T2 construct: whole, on cells; also called huBCMA
T2 sequence (looked up): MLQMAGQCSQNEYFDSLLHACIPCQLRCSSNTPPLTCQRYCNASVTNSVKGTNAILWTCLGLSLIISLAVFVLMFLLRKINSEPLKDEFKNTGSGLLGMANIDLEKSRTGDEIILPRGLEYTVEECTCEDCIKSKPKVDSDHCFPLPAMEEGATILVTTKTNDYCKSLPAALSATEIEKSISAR
Procedure: (§1) Binding of 15B2GL, I09, L15, and J6M0 to membrane-bound human BCMA was evaluated using flow cytometry in multiple myeloma and plasma cell leukemia cell lines that endogenously express BCMA (NCI-H929 and MM.1S, respectively). Binding of 15B2GL, 109, L15 to membrane-bound human BCMA was also evaluated in Ad293 cells expressing human BCMA. Binding assays were performed by incubating the anti-BCMA antibodies with 200,000 cells for 30 minutes at 4° C. followed by two washes with PBS+2% FBS (FACS Buffer). A range of antibody concentrations were evaluated using a 12-point, 3-fold dilution series. Cells were then incubated with 5 ug/mL goat-anti human IgG-AF647 secondary antibodies (Thermo Fisher Scientific, Waltham, Mass.) at 4° C., followed by two washes in PBS+2% FBS. Cells were resuspended in 200 uL PBS+2% FBS+DAPI.
(§2) Fluorescence of live, single cells was measured using a BD Biosciences LSRII cytometer and BD FACSDiva™ software (BD Biosciences, San Jose, Calif.). Data were analyzed using FlowJo™ software (FlowJo, LLC, Ashland, Oreg.). Mean fluorescence intensity values were used to determine percentage bound and EC50 was determined using Prism™ software (GraphPad Software Inc, La Jolla, Calif.).

[3] = molecular target: T2, membrane-bound human BCMA; experiment: FACS on Ad293 cells stably expressing human BCMA, Alexa Fluor 647 secondary antibody, raw MFI (geo mean)
Procedure: (§3) Antibodies 4679, 756, and 15B2GL (as described below) were analyzed by FACS to evaluate binding of antibodies to human BCMA, cynomolgus monkey BCMA, TACI, and BAFF-R using recombinant forms of the receptors stably expressed on Ad293 cells. Binding assays were performed by incubating antibodies 4679, 756, and 15B2GL with 200,000 cells at 4° C. for 45 minutes followed by two washes with PBS+2% FBS. Cells were then incubated with Alexa-Fluor® 647-labeled secondary antibodies at 4° C., followed by two washes in PBS+2% FBS. Anti-BAFF-R, anti-TACI, and anti-human BCMA-APC labeled antibodies were added according to manufacturer's recommended dilution in control wells. Cells were resuspended in 200 uL PBS+2% FBS+DAPI and antibody binding to live cells was analyzed using a Becton Dickinson™ Biosciences LSRII cytometer.

[4] = molecular target: T2, membrane-bound human BCMA; experiment: flow cytometry on MM.1S cells (endogenous BCMA), printed as apparent affinity
Procedure: as §1, §2

[5] = molecular target: T3, TACI stably expressed on Ad293 cells (Homo sapiens (Human), UniProt O14836 1-293); experiment: FACS on Ad293 cells stably expressing TACI, Alexa Fluor 647 secondary antibody, raw MFI (geo mean)
T3 sequence: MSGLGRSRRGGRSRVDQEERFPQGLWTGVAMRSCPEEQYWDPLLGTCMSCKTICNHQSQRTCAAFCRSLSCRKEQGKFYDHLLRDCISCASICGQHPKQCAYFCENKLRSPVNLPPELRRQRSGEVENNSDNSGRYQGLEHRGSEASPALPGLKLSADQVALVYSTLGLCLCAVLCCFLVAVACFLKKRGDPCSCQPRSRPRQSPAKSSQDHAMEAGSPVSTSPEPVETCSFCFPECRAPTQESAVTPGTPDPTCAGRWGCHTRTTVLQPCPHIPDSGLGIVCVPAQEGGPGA
Procedure: as §3

[6] = molecular target: T4, BAFF-R stably expressed on Ad293 cells (Homo sapiens (Human), UniProt Q96RJ3 1-184); experiment: FACS on Ad293 cells stably expressing BAFF-R, Alexa Fluor 647 secondary antibody, raw MFI (geo mean)
T4 sequence: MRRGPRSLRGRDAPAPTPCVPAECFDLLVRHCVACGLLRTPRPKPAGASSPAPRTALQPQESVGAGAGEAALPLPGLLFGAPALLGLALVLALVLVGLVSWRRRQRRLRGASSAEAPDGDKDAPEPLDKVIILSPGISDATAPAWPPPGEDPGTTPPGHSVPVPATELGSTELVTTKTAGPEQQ
Procedure: as §3

[7] = molecular target: T5, cynomolgus monkey BCMA stably expressed on Ad293 cells (cynomolgus monkey, UniProt A0A2K5UD97 1-183); experiment: FACS on Ad293 cells stably expressing cynomolgus BCMA, Alexa Fluor 647 secondary antibody, raw MFI (geo mean)
T5 construct: whole, on cells; also called cynoBCMA; Cyno BCMA
Procedure: as §3

[8] = molecular target: T2, membrane-bound human BCMA; experiment: flow cytometry on Ad293 cells expressing human BCMA, printed as apparent affinity
Procedure: as §1, §2

T5 sequence (A0A2K5UD97 entry or part of it): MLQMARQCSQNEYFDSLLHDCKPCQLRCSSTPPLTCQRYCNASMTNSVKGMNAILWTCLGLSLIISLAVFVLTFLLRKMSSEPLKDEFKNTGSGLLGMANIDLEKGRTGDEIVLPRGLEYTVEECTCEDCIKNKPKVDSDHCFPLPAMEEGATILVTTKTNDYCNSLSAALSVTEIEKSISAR

B1: 15B2GL monoclonal antibody (antibody, V domains shown)
VH: EVQLVESGGGLVKPGGSLRLSCAASGFTFRSYSMNWVRQAPGKGLEWVSSISGSSNYIYYADSVKGRFTISRDNAKNSLYLQMNSLRAEDTAVYYCARGGNYYVEYFQYWGQGTLVTVSS
VL: EIVLTQSPGTLSLSPGERATLSCRASQYISSNYLAWYQQKPGQAPRLLIYGASNRATGIPDRFSGSGSGTDFTLTISRLEPEDFAVYYCQQYGSSPITFGQGTKLEIK
notes: Clone 15B2 was converted into human IgG1 and germlined at four residues (15B2GL); also called germlined 15B2
- Kd [1]: 60.7 nM
- EC50 [2]: 3.14 nM
- EC50 (read off the curve) [3]: ~0.6 µg/mL
- EC50 [4]: 2.56 nM
- binding result [5]: no binding (tested: 100 ug/mL)
- binding result [6]: no binding (tested: 100 ug/mL)
- EC50 (read off the curve) [7]: ~1 µg/mL
- EC50 [8]: 3.87 nM
